Laboratory results published in patent publication US9725702B2, “Laccase from ganoderma lucidum capable of enhancing enzymatic degradation of lignocellulolytic biomass” (DANMARKS TEKNISKE UNIVERSITET, priority 2012, dated 2017).

Assays:
[1] = Laccase-cellulase catalyzed hydrolysis of pretreated biomass, glucose release; format: biochemical; conditions: with cellulase 1 or 2, pH 5.1, 50° C., 30 hour, p<0.05
Method: (§1) FIG. 14. A graphical comparison of glucose released over time during hydrolysis of pre-treated barley straw at pH 5.1 and 50° C. by each of commercial enzyme preparations Cellulase 1 (CC2) [A]; or Cellulase 2 [B], either alone, or in combination with a laccase enzyme; the tested laccases being respectively LacGL1 and GLlac1 (LacJooSS; Q9HG17) derived from G. lucidum; and laccases derived from Agaricus bisporus (Sigma 40452), Pleurotus ostreatus (Sigma 75117) and, Trametes versicolor (Sigma 51639).
(§2) The commercial fungal laccases were purchased as lyophilized protein samples from Sigma Aldrich. A solution of each of the above 5 laccases was prepared in a citric buffer containing 20% of glycerol (pH 5.1, 100 mM).
(§3) Two different commercially available cellulase enzyme preparations used in the comparative study were “Cellulase 1” and “Cellulase 2”, which were tested in combination with each of the laccases listed above.
(§4) The three different types of pretreated biomass used in the comparative study were sugarcane bagasse, barley straw and wheat straw. The source and pre-treatment of the sugarcane bagasse by steam explosion was as set out in Example 9. […] The composition of the dry and the pretreated biomass were determined according to the US National Renewable Energy Laboratory (NREL) procedures (Sluiter et al, 2010).
(§5) The laccase-cellulase catalyzed hydrolysis of the pretreated biomass samples to release glucose was performed as follows: Hydrolysis of 5% (w/v) samples of pretreated sugarcane bagasse, barley straw, and wheat straw biomass were assayed using an Enzyme/Substrate (E/S) ratio of 0.064% w/w for laccases and of 0.4% w/w for each commercial cellulase preparation in each hydrolysis reaction. The E/S dosage was based on the total protein concentration used, as determined using Pierce BCA (BiCinchoninic Acid) protein assay kit microplate procedure according to manufacturer's instruction (Thermo Fisher Scientific, Rockford, US). […]
(§6) Laccase and cellulase-mediated hydrolysis of the 3 biomass forms, measured as glucose release, are shown graphically in FIGS. 13, 14 and 15. […]

[2] = Temperature stability of LacGL1 laccase at pH 4.7; format: physicochemical; conditions: for activity retained: pH 4.7
Method: FIG. 9. The temperature stability profile of LacGL1 laccase as a function of LN [U/mL] vs. incubation time at pH 4.7 and 0.1 M citrate-phosphate buffer. […] The relative difference between single measurements was <5%.
FIG. 10. LacGL1 laccase stability evolution plot at optimum pH of 4.7 and two different temperature values (40° C. and 50° C.). Since the plot is a continuation of temperature stability plot (FIG. 9), the first measurement is given after 1 h. Laccase residual activity [%] is calculated based on activity value of laccase measured at pH 4.7 and 25° C. The relative difference between single measurements was <5%.
The predicted optimal conditions for the LacGL1 laccase activity were validated by measuring the effect of temperature on the relative activity of LacGL1 laccase at pH 4.7. […] (FIG. 10).

[3] = Substrate specificity of laccase (relative rate of product formation); format: biochemical
Method: The laccase activity was measured based on a modified method of Ters et al. (2009). The laccase activity was defined as the amount of the enzyme required to oxidise 1 μmol of ABTS per minute at 25° C., and pH 4.7. The assay mixture contained: 0.1 M citrate-phosphate buffer (255 μL, pH 4.7), ABTS (5 μL, 4 mM (ABTS stock solution)), and pre-diluted laccase (5 μL) that ensured the linear range of Michaelis-Menten kinetics. The oxidation of ABTS was monitored at 420 nm (ε420=36800 M^−1cm^−1) for 2 min. in an Infinite 200 microtiter plate reader (Tecan, Salzburg, Austria). Laccase activity assays on the substrates: hydroquinone (248 nm), 2.6-dimethoxyphenol (470 nm), and guaiacol (436 nm) was done similarly with the substrate concentration as described in Table 2 using the following extinction coefficient values: 17.542 M^−1cm^−1, 35.645 M^−1cm^−1, and 6.400 M^−1cm^−1, respectively (Minussi et al. 2007). The data collection was monitored by the program Tecan i-control version 1.5.14.0 (Tecan, Salzburg, Austria). The calculated laccase activity was corrected by the absorbance of a control sample which contained: 0.1 M citrate-phosphate buffer (255 μL, pH 4.7), ABTS (5 μL, 4 mM), and 5 μL of distilled water instead of the enzyme. All determinations of the laccase activity were performed in duplicates, with an average sample standard deviation less than 5%.
LacGL1 laccase was able to oxidize both ABTS and other phenolic compounds (Table 5) such as: hydroquinone, guaiacol, and 2.6-dimethoxyphenol, however in a slower rate than for ABTS.

[4] = Laccase-cellulase catalyzed hydrolysis of pretreated biomass, glucose release; format: biochemical; conditions: with cellulase 1 or 2, pH 5.1, 50° C., 30 hour
Method: as §1, with “13.” for “14.”, “STEX-SCB” for “pre-treated barley straw”
as §2, §3, §4, §5, §6

B1: LacGL1: Fungal laccase from Ganoderma lucidum CBS229.93 (SEQ ID NO: 5/9), recombinantly expressed in Pichia pastoris X-33 (protein, listed as Ganoderma lucidum)
chain: GIGPKTDLTISNADVAPDGYTRAAVVVNGVFPAPLITGNKGDRFQLNVIDQMTNHTMLKSTSIHWHGFFQKGTNWADGPAFINQCPISSGHSFLYDFQVPDQAGTFWYHSHLSTQYCDGLRGPFVVYDPKDPLKKLYDIDDDSTVITLTDWYHVAARLGPRFPLGSDSTLINGLGRSTTNVTADLAVINVTQGKRYRFRLVSLSCDPNYTFSIDDHNMTVIEADGIETQPVTVNAIQIFSAQRYSFVLTANQTIDNYWIRANPNFGNVGFTDGINSAILRYAGADPVEPTTSQQTTQNLLNEVDLHPFVPKRTPGQPTQGGVDTAINMVFNFNGSNFFINNASFVPPTVPVLLQILSGAQAAQDLLPSGSVYTLPVNKSIELTFPATANAPGAPHPFHLHGHAFAVVRSAGSTVYNYDNPVWRDVVSTGTPAAGDNVTIRFQTDNPGPWFLHCHIDFHLEAGFAVVFAEDPTDTSLANPVPKAWSDLCPTYDALSVDDQ
modifications: mat_peptide (1)..(499) Mature LacGL1 laccase (minus signal peptide)
[1]
  glucose release compared to GLlac1: significantly greater
  glucose release compared to the other tested laccases: significantly enhanced
[2]; 25, 40 and 50° C., pH 4.7, within an hour
  change of activity: did not change significantly
[2]; 60° C., pH 4.7, within an hour
  laccase activity remaining: 19%
[2]; 70° C., pH 4.7, within an hour
  laccase activity remaining: 3%
[2]; after 5 h at 50° C.
  activity retained: 23%
[2]; after 24 h at 40° C.
  activity retained: 33%
[3]; substrate 2.6-Dimethoxyphenol 1 mM
  Laccase relative rate of product formation: 61%
[3]; substrate ABTS 1 mM
  Laccase relative rate of product formation: 100%
[3]; substrate Guaiacol 1 mM
  Laccase relative rate of product formation: 66%
[3]; substrate Hydroquinone 1 mM
  Laccase relative rate of product formation: 80%
[4]
  glucose release compared to GLlac1: the same
[4]; p<0.05
  glucose release compared to the other tested laccases: significantly enhanced
